# Data taken from IntAct's records for PubMed 26524528.
# B1: Lamin-B1 (Homo sapiens), P20700 (parent)
# chain: MATATPVPPRMGSRAGGPTTPLSPTRLSRLQEKEELRELNDRLAVYIDKVRSLETENSALQLQVTEREEVRGRELTGLKALYETELADARRALDDTARERAKLQIELGKCKAEHDQLLLNYAKKESDLNGAQIKLREYEAALNSKDAALATALGDKKSLEGDLEDLKDQIAQLEASLAAAKKQLADETLLKVDLENRCQSLTEDLEFRKSMYEEEINETRRKHETRLVEVDSGRQIEYEYKLAQALHEMREQHDAQVRLYKEELEQTYHAKLENARLSSEMNTSTVNSAREELMESRMRIESLSSQLSNLQKESRACLERIQELEDLLAKEKDNSRRMLTDKEREMAEIRDQMQQQLNDYEQLLDVKLALDMEISAYRKLLEGEEERLKLSPSPSSRVTVSRASSSRSVRTTRGKRKRVDVEESEASSSVSISHSASATGNVCIEEIDVDGKFIRLKNTSEQDQPMGGWEMIRKIGDTSVSYKYTSRYVLKAGQTVTIWAANAGVTASPPTDLIWKNQNSWGTGEDVKVILKNSQGEEVAQRSTVFKTTIPEEEEEEEEAAGVVVEEELFHQQGTPRASNRSCAIM
# Variants of: B1
# Conditions: with mlp3b_human MAP1LC3B
row,Variant,effect of a mutation on the interaction
1,MATATPVPPRMGSRAGGPTTPLSPTRLSRLQEKEELRELNDRLAVYIDKVRSLETENSALQLQVTEREEVRGRELTGLKALYETELADARRALDDTARERAKLQIELGKCKAEHDQLLLNYAKKESDLNGAQIKLREYEAALNSKDAALATALGDKKSLEGDLEDLKDQIAQLEASLAAAKKQLADETLLKVDLENRCQSLTEDLEFRKSMYEEEINETRRKHETRLVEVDSGRQIEYEYKLAQALHEMREQHDAQVRLYKEELEQTYHAKLENARLSSEMNTSTVNSAREELMESRMRIESLSSQLSNLQKESRACLERIQELEDLLAKEKDNSRRMLTDKEREMAEIRDQMQQQLNDYEQLLDVKLALDMEISAYRKLLEGEEERLKLSPSPSAAVTVSRASSSRSVRTTRGKRKRVDVEESEASSSVSISHSASATGNVCIEEIDVDGKFIRLKNTSEQDQPMGGWEMIRKIGDTSVSYKYTSRYVLKAGQTVTIWAANAGVTASPPTDLIWKNQNSWGTGEDVKVILKNSQGEEVAQRSTVFKTTIPEEEEEEEEAAGVVVEEELFHQQGTPRASNRSCAIM [S396A;R397A],decreasing interaction strength
2,MATATPVPPRMGSRAGGPTTPLSPTRLSRLQEKEELRELNDRLAVYIDKVRSLETENSALQLQVTEREEVRGRELTGLKALYETELADARRALDDTARERAKLQIELGKCKAEHDQLLLNYAKKESDLNGAQIKLREYEAALNSKDAALATALGDKKSLEGDLEDLKDQIAQLEASLAAAKKQLADETLLKVDLENRCQSLTEDLEFRKSMYEEEINETRRKHETRLVEVDSGRQIEYEYKLAQALHEMREQHDAQVRLYKEELEQTYHAKLENARLSSEMNTSTVNSAREELMESRMRIESLSSQLSNLQKESRACLERIQELEDLLAKEKDNSRRMLTDKEREMAEIRDQMQQQLNDYEQLLDVKLALDMEISAYRKLLEGEEERLKLSPAPAAAVTVSRASSSRSVRTTRGKRKRVDVEESEASSSVSISHSASATGNVCIEEIDVDGKFIRLKNTSEQDQPMGGWEMIRKIGDTSVSYKYTSRYVLKAGQTVTIWAANAGVTASPPTDLIWKNQNSWGTGEDVKVILKNSQGEEVAQRSTVFKTTIPEEEEEEEEAAGVVVEEELFHQQGTPRASNRSCAIM [S393A;S395A;S396A;R397A],decreasing interaction strength
3,MATATPVPPRMGSRAGGPTTPLSPTRLSRLQEKEELRELNDRLAVYIDKVRSLETENSALQLQVTEREEVRGRELTGLKALYETELADARRALDDTARERAKLQIELGKCKAEHDQLLLNYAKKESDLNGAQIKLREYEAALNSKDAALATALGDKKSLEGDLEDLKDQIAQLEASLAAAKKQLADETLLKVDLENRCQSLTEDLEFRKSMYEEEINETRRKHETRLVEVDSGRQIEYEYKLAQALHEMREQHDAQVRLYKEELEQTYHAKLENARLSSEMNTSTVNSAREELMESRMRIESLSSQLSNLQKESRACLERIQELEDLLAKEKDNSRRMLTDKEREMAEIRDQMQQQLNDYEQLLDVKLALDMEISAYRKLLEGEEERLKLSPAPASRVTVSRASSSRSVRTTRGKRKRVDVEESEASSSVSISHSASATGNVCIEEIDVDGKFIRLKNTSEQDQPMGGWEMIRKIGDTSVSYKYTSRYVLKAGQTVTIWAANAGVTASPPTDLIWKNQNSWGTGEDVKVILKNSQGEEVAQRSTVFKTTIPEEEEEEEEAAGVVVEEELFHQQGTPRASNRSCAIM [S393A;S395A],decreasing interaction strength
4,MATATPVPPRMGSRAGGPTTPLSPTRLSRLQEKEELRELNDRLAVYIDKVRSLETENSALQLQVTEREEVRGRELTGLKALYETELADARRALDDTARERAKLQIELGKCKAEHDQLLLNYAKKESDLNGAQIKLREYEAALNSKDAALATALGDKKSLEGDLEDLKDQIAQLEASLAAAKKQLADETLLKVDLENRCQSLTEDLEFRKSMYEEEINETRRKHETRLVEVDSGRQIEYEYKLAQALHEMREQHDAQVRLYKEELEQTYHAKLENARLSSEMNTSTVNSAREELMESRMRIESLSSQLSNLQKESRACLERIQELEDLLAKEKDNSRRMLTDKEREMAEIRDQMQQQLNDYEQLLDVKLALDMEISAYRKLLEGEEERLKLSPSPSSRATVSRASSSRSVRTTRGKRKRVDVEESEASSSVSISHSASATGNVCIEEIDVDGKFIRLKNTSEQDQPMGGWEMIRKIGDTSVSYKYTSRYVLKAGQTVTIWAANAGVTASPPTDLIWKNQNSWGTGEDVKVILKNSQGEEVAQRSTVFKTTIPEEEEEEEEAAGVVVEEELFHQQGTPRASNRSCAIM [V398A],decreasing interaction strength
5,MATATPVPPRMGSRAGGPTTPLSPTRLSRLQEKEELRELNDRLAVYIDKVRSLETENSALQLQVTEREEVRGRELTGLKALYETELADARRALDDTARERAKLQIELGKCKAEHDQLLLNYAKKESDLNGAQIKLREYEAALNSKDAALATALGDKKSLEGDLEDLKDQIAQLEASLAAAKKQLADETLLKVDLENRCQSLTEDLEFRKSMYEEEINETRRKHETRLVEVDSGRQIEYEYKLAQALHEMREQHDAQVRLYKEELEQTYHAKLENARLSSEMNTSTVNSAREELMESRMRIESLSSQLSNLQKESRACLERIQELEDLLAKEKDNSRRMLTDKEREMAEIRDQMQQQLNDYEQLLDVKLALDMEISAYRKLLEGEEERLKLSPAPAAAATVSRASSSRSVRTTRGKRKRVDVEESEASSSVSISHSASATGNVCIEEIDVDGKFIRLKNTSEQDQPMGGWEMIRKIGDTSVSYKYTSRYVLKAGQTVTIWAANAGVTASPPTDLIWKNQNSWGTGEDVKVILKNSQGEEVAQRSTVFKTTIPEEEEEEEEAAGVVVEEELFHQQGTPRASNRSCAIM [S393A;S395A;S396A;R397A;V398A],disrupting interaction strength
6,MATATPVPPRMGSRAGGPTTPLSPTRLSRLQEKEELRELNDRLAVYIDKVRSLETENSALQLQVTEREEVRGRELTGLKALYETELADARRALDDTARERAKLQIELGKCKAEHDQLLLNYAKKESDLNGAQIKLREYEAALNSKDAALATALGDKKSLEGDLEDLKDQIAQLEASLAAAKKQLADETLLKVDLENRCQSLTEDLEFRKSMYEEEINETRRKHETRLVEVDSGRQIEYEYKLAQALHEMREQHDAQVRLYKEELEQTYHAKLENARLSSEMNTSTVNSAREELMESRMRIESLSSQLSNLQKESRACLERIQELEDLLAKEKDNSRRMLTDKEREMAEIRDQMQQQLNDYEQLLDVKLALDMEISAYRKLLEGEEERLKLSPSPAARVTVSRASSSRSVRTTRGKRKRVDVEESEASSSVSISHSASATGNVCIEEIDVDGKFIRLKNTSEQDQPMGGWEMIRKIGDTSVSYKYTSRYVLKAGQTVTIWAANAGVTASPPTDLIWKNQNSWGTGEDVKVILKNSQGEEVAQRSTVFKTTIPEEEEEEEEAAGVVVEEELFHQQGTPRASNRSCAIM [S395A;S396A],decreasing interaction strength
